Assay results: PMC3954457 (The Journal of biological chemistry, 2006)
Each block holds one molecule with its values, some of them ahead of it.

Legend:
[1] = molecular target: X di-domain (XDD) of human E3 binding protein: lipoyl domain and subunit binding domain (human); assay: ITC
[2] = molecular target: T1, human dihydrolipoamide dehydrogenase (E3) (human, UniProt P09622 36-509); assay: native gel or EMSA
T1 sequence: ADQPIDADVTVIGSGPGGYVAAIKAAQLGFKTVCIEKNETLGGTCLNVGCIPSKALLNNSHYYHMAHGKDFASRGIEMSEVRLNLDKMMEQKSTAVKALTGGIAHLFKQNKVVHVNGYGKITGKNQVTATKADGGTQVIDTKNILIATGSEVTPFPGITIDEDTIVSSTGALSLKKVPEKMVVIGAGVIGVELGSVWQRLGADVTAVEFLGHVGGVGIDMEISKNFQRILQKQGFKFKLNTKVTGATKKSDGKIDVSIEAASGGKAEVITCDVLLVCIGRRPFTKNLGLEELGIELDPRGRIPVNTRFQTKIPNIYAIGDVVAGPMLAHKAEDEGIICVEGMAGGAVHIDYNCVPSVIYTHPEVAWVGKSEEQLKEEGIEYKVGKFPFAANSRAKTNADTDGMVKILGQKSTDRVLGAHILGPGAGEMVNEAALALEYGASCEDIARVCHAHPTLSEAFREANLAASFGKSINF

dH [1]: -12.1 kcal/mol
stoichiometry N [1]: 0.5 E3:XDD
Molecule: human dihydrolipoamide dehydrogenase (E3) (from UniProt P09622 36-509) (enzyme)

stoichiometry N [2]: 2 XSBD:E3
B1: X subunit binding domain (XSBD) of human E3 binding protein (domain or fragment)
chain: QISIPVKKEHIPGTLRFRLSPAARNILEKHSLDASQGTATGPRGIFTKEDALKLVQLKQTGKITE
